From publication PMC3491106 (Biochemistry, 2012)

Key:
[1] = target: His6-EhFormin1 fusion (GBD-FH3 domain tandem, 40-residue linker, FH2-DAD fragment) (E. histolytica); assay: SPR
[2] = target: T1, His6-EhFormin1 GBD-FH3 domain tandem (a.a. 69-418) (E. histolytica, UniProt C4M622 69-418); assay: SPR
T1 sequence (looked up): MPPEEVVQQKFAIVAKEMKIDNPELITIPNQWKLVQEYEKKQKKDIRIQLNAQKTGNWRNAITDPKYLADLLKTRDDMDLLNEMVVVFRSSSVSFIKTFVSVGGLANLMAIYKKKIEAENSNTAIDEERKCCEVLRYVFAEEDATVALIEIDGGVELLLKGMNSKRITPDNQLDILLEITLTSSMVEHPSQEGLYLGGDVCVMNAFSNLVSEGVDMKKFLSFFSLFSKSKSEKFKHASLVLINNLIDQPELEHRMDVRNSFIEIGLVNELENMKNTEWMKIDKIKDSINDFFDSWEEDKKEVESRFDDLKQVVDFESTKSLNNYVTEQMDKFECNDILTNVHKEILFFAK

Binder	Kd [1] [µM]	Kd [2] [µM]
EhRho1·GTPγS (Entamoeba histolytica Rho1, wild type, loaded with GTPγS) (natural protein, E. histolytica) MLAFSDMNTGAGKIENGKKALKIVVVGDGAVGKTCLLLAFSKGEIPTAYVPTVFENFSHVMKYKNEEFILHLWDTAGQEEYDRLRPLSYADSDVVLLCFAVNNRTSFDNISTKWEPEIKHYIDTAKTVLVGLKVDLRKDGSDDVTKQEGDDLCQKLGCVAYIEASSVAKIGLNEVFEKSVDCIFSNKPVPK	3	~3
EhRho1 Arg83 to Gln mutant (natural protein) MLAFSDMNTGAGKIENGKKALKIVVVGDGAVGKTCLLLAFSKGEIPTAYVPTVFENFSHVMKYKNEEFILHLWDTAGQEEYDQLRPLSYADSDVVLLCFAVNNRTSFDNISTKWEPEIKHYIDTAKTVLVGLKVDLRKDGSDDVTKQEGDDLCQKLGCVAYIEASSVAKIGLNEVFEKSVDCIFSNKPVPK	–	> 100
